We go through 14 variants from IntAct's records for PubMed 28533415.

The chains are these.
B1: Vacuolar protein 8 (Saccharomyces cerevisiae), P39968 (parent)
chain: MGSCCSCLKDSSDEASVSPIADNEREAVTLLLGYLEDKDQLDFYSGGPLKALTTLVYSDNLNLQRSAALAFAEITEKYVRQVSREVLEPILILLQSQDPQIQVAACAALGNLAVNNENKLLIVEMGGLEPLINQMMGDNVEVQCNAVGCITNLATRDDNKHKIATSGALIPLTKLAKSKHIRVQRNATGALLNMTHSEENRKELVNAGAVPVLVSLLSSTDPDVQYYCTTALSNIAVDEANRKKLAQTEPRLVSKLVSLMDSPSSRVKCQATLALRNLASDTSYQLEIVRAGGLPHLVKLIQSDSIPLVLASVACIRNISIHPLNEGLIVDAGFLKPLVRLLDYKDSEEIQCHAVSTLRNLAASSEKNRKEFFESGAVEKCKELALDSPVSVQSEISACFAILALADVSKLDLLEANILDALIPMTFSQNQEVSGNAAAALANLCSRVNNYTKIIEAWDRPNEGIRGFLIRFLKSDYATFEHIALWTILQLLESHNDKVEDLVKNDDDIINGVRKMADVTFERLQRSGIDVKNPGSNNNPSSNDNNSNNNDTGSEHQPVEDASLELYNITQQILQFLH
partner: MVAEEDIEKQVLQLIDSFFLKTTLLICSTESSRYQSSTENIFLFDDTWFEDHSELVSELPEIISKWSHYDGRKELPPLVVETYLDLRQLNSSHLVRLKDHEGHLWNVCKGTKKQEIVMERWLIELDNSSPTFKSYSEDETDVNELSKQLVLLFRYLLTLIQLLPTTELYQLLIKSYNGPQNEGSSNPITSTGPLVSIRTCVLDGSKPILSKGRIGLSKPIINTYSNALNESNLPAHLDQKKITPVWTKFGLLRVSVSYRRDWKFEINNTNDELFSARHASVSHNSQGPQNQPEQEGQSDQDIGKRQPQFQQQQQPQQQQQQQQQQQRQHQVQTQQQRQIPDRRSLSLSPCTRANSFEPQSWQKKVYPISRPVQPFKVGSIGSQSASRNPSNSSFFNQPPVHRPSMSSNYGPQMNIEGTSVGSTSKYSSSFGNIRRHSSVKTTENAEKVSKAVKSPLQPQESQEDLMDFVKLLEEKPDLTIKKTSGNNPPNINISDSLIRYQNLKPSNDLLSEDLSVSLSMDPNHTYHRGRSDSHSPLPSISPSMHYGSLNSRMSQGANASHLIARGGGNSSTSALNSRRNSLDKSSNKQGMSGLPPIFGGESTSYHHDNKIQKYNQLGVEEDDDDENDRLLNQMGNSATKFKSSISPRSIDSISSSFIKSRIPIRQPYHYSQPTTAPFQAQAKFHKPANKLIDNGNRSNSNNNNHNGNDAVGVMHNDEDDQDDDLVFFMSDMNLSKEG
B2: Vacuolar protein 8 (Saccharomyces cerevisiae), P39968 (parent)
chain: B1 chain
partner: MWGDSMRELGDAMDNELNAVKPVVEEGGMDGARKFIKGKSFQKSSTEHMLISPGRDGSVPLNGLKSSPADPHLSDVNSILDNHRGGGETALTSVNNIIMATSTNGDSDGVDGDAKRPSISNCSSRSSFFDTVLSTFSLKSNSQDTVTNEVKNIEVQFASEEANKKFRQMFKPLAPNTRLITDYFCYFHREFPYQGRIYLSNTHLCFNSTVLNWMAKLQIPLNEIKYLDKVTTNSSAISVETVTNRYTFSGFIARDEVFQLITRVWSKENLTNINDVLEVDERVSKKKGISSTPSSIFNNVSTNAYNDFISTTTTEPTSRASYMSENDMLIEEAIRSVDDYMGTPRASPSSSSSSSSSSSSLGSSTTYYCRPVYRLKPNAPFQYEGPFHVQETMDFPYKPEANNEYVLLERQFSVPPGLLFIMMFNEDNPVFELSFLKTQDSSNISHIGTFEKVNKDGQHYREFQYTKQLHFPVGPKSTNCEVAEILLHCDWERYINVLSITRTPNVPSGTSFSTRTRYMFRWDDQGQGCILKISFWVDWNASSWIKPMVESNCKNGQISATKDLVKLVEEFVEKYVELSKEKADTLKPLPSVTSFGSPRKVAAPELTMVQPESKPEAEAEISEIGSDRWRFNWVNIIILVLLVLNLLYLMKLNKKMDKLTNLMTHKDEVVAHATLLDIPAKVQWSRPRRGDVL
B3: Nucleus-vacuole junction protein 1 (Saccharomyces cerevisiae), P38881 (parent)
chain: MTRPPLVRGIFSLGLSVAVLKGVEKTVRKHLERQGWIEPQKVDYELIFTIDRLKNLVDNKREALTAEQPDAGELSWRKVFNFISRQSSELDTRIYVLILLLSFLLPIAWTVLDGDRETTLEDKDNDCNVDLIENERRLKHYNDGERAVLQFGKNRSEPIILSYKDMNVLEGEHEFTSKEEHSNSHLTSKSENALNQVGSEDLLGCHLEKQLEEDKNEPNGEADGEDDNNREKDCSSSSEVESQSKCRKESTAEPDSLSRDTRTTSSLKSSTSFPISFKGSIDLKSLNQPSSLLHIQVSPTKSSNLDAQVNTEQAYSQPFRY
partner: B1 chain
B4: Vacuolar protein 8 (Saccharomyces cerevisiae), P39968 (parent)
chain: B1 chain
partner: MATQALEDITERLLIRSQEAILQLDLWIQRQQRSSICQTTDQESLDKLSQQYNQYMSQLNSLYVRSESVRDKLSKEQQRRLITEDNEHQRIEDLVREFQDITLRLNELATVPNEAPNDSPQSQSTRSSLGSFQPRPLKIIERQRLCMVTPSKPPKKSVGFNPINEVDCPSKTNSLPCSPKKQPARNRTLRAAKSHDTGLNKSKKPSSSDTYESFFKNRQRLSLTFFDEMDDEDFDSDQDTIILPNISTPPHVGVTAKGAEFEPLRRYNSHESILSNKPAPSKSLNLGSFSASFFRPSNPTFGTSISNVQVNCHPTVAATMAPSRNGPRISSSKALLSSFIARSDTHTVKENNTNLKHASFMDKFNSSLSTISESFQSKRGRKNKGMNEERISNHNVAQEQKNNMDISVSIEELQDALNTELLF
B5: Vacuolar protein 8 (Saccharomyces cerevisiae), P39968 (parent)
chain: B1 chain
partner: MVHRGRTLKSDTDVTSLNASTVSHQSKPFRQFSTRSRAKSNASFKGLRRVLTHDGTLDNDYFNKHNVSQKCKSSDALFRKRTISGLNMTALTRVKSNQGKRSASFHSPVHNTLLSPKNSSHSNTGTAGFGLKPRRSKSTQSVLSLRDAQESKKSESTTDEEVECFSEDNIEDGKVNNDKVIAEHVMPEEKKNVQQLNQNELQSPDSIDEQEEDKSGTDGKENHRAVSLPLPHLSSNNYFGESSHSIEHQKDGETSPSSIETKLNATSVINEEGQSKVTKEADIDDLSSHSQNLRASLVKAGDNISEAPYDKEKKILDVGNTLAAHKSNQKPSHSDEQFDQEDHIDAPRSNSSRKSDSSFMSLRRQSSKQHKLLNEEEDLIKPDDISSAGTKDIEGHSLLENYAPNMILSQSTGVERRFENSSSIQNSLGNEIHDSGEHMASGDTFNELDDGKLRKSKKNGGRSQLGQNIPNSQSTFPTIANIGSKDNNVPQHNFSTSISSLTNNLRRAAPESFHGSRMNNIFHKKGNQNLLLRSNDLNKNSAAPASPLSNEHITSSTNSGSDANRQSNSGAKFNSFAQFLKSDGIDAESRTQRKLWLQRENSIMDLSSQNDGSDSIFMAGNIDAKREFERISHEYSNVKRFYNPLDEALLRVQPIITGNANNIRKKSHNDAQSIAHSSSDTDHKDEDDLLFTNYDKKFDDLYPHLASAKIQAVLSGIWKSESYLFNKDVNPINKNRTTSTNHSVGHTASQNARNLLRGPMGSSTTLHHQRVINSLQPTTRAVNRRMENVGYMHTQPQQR
B6: Vacuolar protein 8 (Saccharomyces cerevisiae), P39968 (parent)
chain: B1 chain
partner: B3 chain

In the first test the parent is B1. The note with it: with atg13_yeast ATG13, Q06628.
As to R276E;R317E;R359E, the “effect of a mutation on the interaction” value was “disrupting interaction strength”.

Variants of B2 are the subject of a further test. The following applies: with lam6_yeast LAM6, Q08001.
Regarding R276E;R317E;R359E, the “effect of a mutation on the interaction” value is “with no effect”.

A further test covers variants of B3. The following applies: with vac8_yeast VAC8, P39968.
As to I295R;A307R;F319E, the “effect of a mutation on the interaction” value is on record as “disrupting interaction strength”.

For F319E, the “effect of a mutation on the interaction” value is “disrupting interaction strength”. Still for that read-out and setting: under S303A stands “with no effect”. Still for that read-out and setting: with A307R the entry was “decreasing interaction strength”; with P299S, “with no effect”; with K301E, “decreasing interaction strength”. On to I295R, for which the “effect of a mutation on the interaction” value is reported as “decreasing interaction strength”.

In a further test the parent is B4. The note with it: with vac17_yeast VAC17, P25591.
Regarding R276E;R317E;R359E, the “effect of a mutation on the interaction” value is “with no effect”.

In another test the parent is B5. The note with it: with tco89_yeast TCO89, Q08921.
R276E;R317E;R359E: the “effect of a mutation on the interaction” value is given as “with no effect”.

Another test covers variants of B6. The note with it: with nvj1_yeast NVJ1, P38881.
On to L55R, for which the “effect of a mutation on the interaction” value was “disrupting interaction strength”.

Regarding A51R, the “effect of a mutation on the interaction” value is recorded as “disrupting interaction strength”.

In the next test the parent is B6. The note with it: with nvj1_yeast NVJ1, P38881. The source holds these as a separate data set.
In the case of R276E;R317E;R359E, the “effect of a mutation on the interaction” value is “disrupting interaction strength”.
